Tests used:
[1] = biological target: HHARI of the HHARI/UbcH7 complex analysed by SEC-MALS (human) (UniProt Q9Y4X5); assay: SEC-MALS; HHARI/UbcH7 complex at 1.5 mg/ml in 25 mM MOPS, 150 mM NaCl, pH 7.5; Superose 6 Increase 3.2/300; room temperature
[2] = biological target: UbcH7 (C17S, C86K, C137S)∼Ub conjugate (for ITC) (human) (UniProt P68036); assay: ITC; 250-300 μM RING1 constructs in the syringe, 25-30 μM E2 or E2∼Ub in the cell; 293 K; 25 mM Hepes pH 7.5, 150 mM NaCl, 0.5 mM TCEP; 1:1 fit; repeated twice, averages
[3] = biological target: UbcH7 (wild type, for ITC) (human) (UniProt P68036); assay: as above

Substance | stoichiometry N [1] | Kd [2] | dH [2] | stoichiometry N [2] | Kd [3] | dH [3] | stoichiometry N [3]
UbcH7 of the HHARI/UbcH7 complex analysed by SEC-MALS (from UniProt P68036 1-154) (enzyme) | 1 | – | – | – | – | – | –
HHARI RING1 (aa 177-270), wild type (from UniProt Q9Y4X5 177-270) (domain or fragment) | – | 116 nM | 3.7 kcal/mol | 1 | 294 nM | 4.3 kcal/mol | 1

From article PMC5462532
